Test results: PMC6715715 (Communications Biology, 2019)

T1: AtcC-6His (SO_1846) (Shewanella oneidensis MR-1, UniProt Q8EFW9 1-298)
T1 construct: AtcC (SO_1846) of Shewanella oneidensis MR-1, 34 kDa; pBad33-AtcC was made by moving the insert of pET-AtcC, so both give AtcC with a C-terminal 6-His tag; also called AtcC with a 6His-tag; not shown: His6, C-terminal, kept
T1 sequence (looked up): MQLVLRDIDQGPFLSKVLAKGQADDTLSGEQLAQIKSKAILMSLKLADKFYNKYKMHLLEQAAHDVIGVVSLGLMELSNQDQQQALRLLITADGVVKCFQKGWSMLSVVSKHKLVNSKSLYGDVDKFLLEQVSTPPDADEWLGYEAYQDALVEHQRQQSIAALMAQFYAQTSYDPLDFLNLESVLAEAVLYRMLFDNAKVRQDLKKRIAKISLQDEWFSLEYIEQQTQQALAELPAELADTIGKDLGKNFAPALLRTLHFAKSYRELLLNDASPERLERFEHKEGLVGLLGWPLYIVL


Legend:
AtcC-6His (SO_1846) [1] = target: T1, AtcC-6His (SO_1846); assay: ITC; 25 °C, buffer B (50 mM Tris-HCl, 100 mM KCl, 10% glycerol, 1 mM DTT); 285 µM ligand titrated into 36 µM AtcC in the cell; one set of sites model; conditions: both partners purified
[2] = target: DnaK-6His from S. oneidensis (Shewanella oneidensis MR-1, UniProt Q8EHT7 1-639); assay: cell-based or functional assay
Chain of DnaK-6His from S. oneidensis (Q8EHT7 whole entry): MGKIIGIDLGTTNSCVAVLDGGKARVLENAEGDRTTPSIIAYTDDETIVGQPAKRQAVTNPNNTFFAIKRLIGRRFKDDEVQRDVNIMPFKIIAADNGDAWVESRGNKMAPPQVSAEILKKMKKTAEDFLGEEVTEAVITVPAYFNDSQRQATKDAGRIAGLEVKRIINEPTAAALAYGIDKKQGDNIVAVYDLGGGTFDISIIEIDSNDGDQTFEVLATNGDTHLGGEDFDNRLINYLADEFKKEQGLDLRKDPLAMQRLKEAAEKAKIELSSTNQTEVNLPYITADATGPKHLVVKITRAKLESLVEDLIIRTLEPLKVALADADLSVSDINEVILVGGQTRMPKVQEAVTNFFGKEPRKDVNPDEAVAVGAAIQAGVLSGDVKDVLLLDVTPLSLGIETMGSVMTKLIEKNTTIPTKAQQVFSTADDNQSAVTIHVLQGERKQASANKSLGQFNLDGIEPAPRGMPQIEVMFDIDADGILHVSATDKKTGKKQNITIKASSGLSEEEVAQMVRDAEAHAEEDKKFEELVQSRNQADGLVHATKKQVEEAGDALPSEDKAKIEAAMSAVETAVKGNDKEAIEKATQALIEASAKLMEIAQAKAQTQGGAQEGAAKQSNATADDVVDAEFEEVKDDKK

AtcC-6His (SO_1846) [3] = target: T1, AtcC-6His (SO_1846); assay: pull-down; conditions: both partners purified

Kd (AtcC-6His (SO_1846) [1]) [nM] | stoichiometry N (AtcC-6His (SO_1846) [1]) | stimulation of the ATPase activity of DnaK in the presence of GrpE (2 µM) from S. oneidensis [2] [fold] | binding result (AtcC-6His (SO_1846) [3]) | Binder
7 ± 2 | 1 | 2.7 | – | AtcJ-6His (Adaptation to cold protein J, SO_1850) (natural protein, Shewanella oneidensis MR-1, UniProt Q8EFW5 1-94, looked up, AtcJ (SO_1850) of Shewanella oneidensis MR-1, a 94-amino acid J-domain protein (J-domain 1-73 and a C-terminal extension of 21 amino acids); also called wild-type AtcJ; AtcJ-WT) MINHFSVLGIKPSAKEDDIKKAYRRLSNKYHPDKLLGASDEEKEQASQQLERVKKAYEVLSDPKLRNAFIRDFNNVIVTDPNSAMRELWDQFYP
80 ± 12 | – | – | – | NNVIVTDPNSAMRELWDQFYP (last 21 amino acids of AtcJ (SO_1850) of Shewanella oneidensis (94 amino acids; N74 is the first residue of the extension); The methods sentence says 'last 21 amino acids of AtcC'; results and legends say AtcJ; also called the peptide) [pep21, synthetic peptide corresponding to the last 21 amino acids of AtcJ]
– | – | – | binds | Strep-AtcB (natural protein, Shewanella oneidensis MR-1, UniProt Q8EFW7 1-252, looked up, AtcB (SO_1848) of Shewanella oneidensis MR-1, 29 kDa; also called AtcB with a Strep-tag; purified AtcB) MNTSLIEITVAEIKELADVEPKQASKRFELIATTMNDEQLVEVIEKMDIVTLTQINSHHDISCPSIMSELMTPEQIRDIVCQQPLYWEEKIKNNAEELIQHTFDFLTYLIRIQDSEEKQTAILECIAEDPAGLFYLSIPFIEMMLGEGHDDEDHINDYYDDEEDTDTIGYDSRVASEEAHSFSLDDPRSLMALIHELAPDVEKAIKNLLRNESSGWETIINKFVNELVIQAKEKNQVTDEYAEVDDMFSFLD
